Positions count from the first letter of the chain named.
B1: M3286 (bispecific antibody)
heavy: EVQLVESGGGLVQPGGSLRLSCAASGFTFSTYAMNWVRQAPGKGLEWVGRIRSKYNNYATYYADSVKGRFTISRDDSKNTLYLQMNSLRAEDTAVYYCVRHGNFGDSYVSWFAYWGQGTLVTVSSASTKGPSVFPLAPSSKSTSGGTAALGCLVKDYFPEPVTVSWNSGALTSGVHTFPAVLQSSGLYSLSSVVTVPSSSLGTQTYICNVNHKPSNTKVDKKVEPKSCGGGGSDIQMTQSPSSLSASVGDRVTITCRSSQSVYNNLLGWYQQKPGKAPKLLIYSASTLASGVPSRFSGSGSGTDFTLTISSLQPEDSATYYCQGTYYTGDWYYPFGCGTKVEIKGGGGSGGGGSGGGGSGGGGSQVQLVESGGGSVQPGRSLRLSCAASGFTFSTYGVSWVRQAPGKCLEWIGYIDPVYGSTHYADSVKGRFTISRDNSKNTLYLQMNSLRAEDTASYYCARDLYAGSSGYYMIYSLWGQGTSVTVSS
light: QAVVTQEPSLTVSPGGTVTLTCGSSTGAVTTSNYANWVQQKPGKSPRGLIGGTNKRAPGVPARFSGSLLGGKAALTISGAQPEDEADYYCALWYSNHWVFGGGTKLTVLGQPKAAPSVTLFPPSSEELQANKATLVCLISDFYPGAVTVAWKADSSPVKAGVETTTPSKQSNNKYAASSYLSLTPEQWKSHRSYSCQVTHEGSTVEKTVAPTECS
notes: Humanized variant of M2638, monovalent Fab-scFv
B2: M3293 (bispecific antibody)
heavy: B1 heavy with L288R, T392D, A461V
light: B1 light
notes: as for B1

Target: T1, HLA-A*02:01/PRAME antigen (recombinant, … on HLA-A*02:01) (human, Complex biotinylated for SPR capture; site of biotin and any tag not stated, not in the letters.)
T1 construct: also called PRAME target; pMHC
Assay: SPR (Biacore 8K), biotinylated pMHC captured, Fab-scFv analyte, single-cycle kinetics, 1:1 fit
Experimental: Recombinantly produced hits in Fab-scFv format, as described in Example 4, were evaluated for their ability to bind HLA-A*02:01/PRAME antigen. Binding characterization was performed by surface plasmon resonance (SPR) using a Biacore™ 8k (Cytiva) device. Briefly, 3000 RU of Biotin CAPture reagent (Cytiva) was immobilized on a Series S Sensor Chip CAP (Cytiva) and the biotinylated ligand HLA-A*02:01/PRAME (SEQ ID NO: 68) was diluted in HPS-EP+ running buffer (TEKNOVA) and captured for 300 s at a flow rate of 2 μL/min at flow cell 2 resulting in a ligand capture level of >100 RU. Subsequently, at least three consecutive analyte injections were performed at suitable concentrations applying the single-cycle-kinetics mode at a flow rate of 30 μL/min with an association time of 90 s and the dissociation time set to >400 s. The chip surface was regenerated according to the manufacturer's instructions. After reference flow cell signal and blank injections subtraction, the data was fit to a 1:1 Langmuir binding model to determine the association rate constant kₐ and dissociation rate constant kd and calculate the equilibrium dissociation constant KD (kd/kₐ), also denoted as affinity, using the Biacore™ Insight Evaluation software.

Row | Binder | Kd
1 | B1 | 1.5 nM
2 | B2 | 0.05 nM

Source: patent publication US20250333514A1 (CDR LIFE, published 2025)
